The values below come from patent US20190169637A1.

The target of one data set is CD19 (UniProt P15391). Kind of data set: cell-based or functional assay.
The test system of data set [1] is Sleeping Beauty transposase SB100X (hyperactive) (synthetic construct (reconstructed Tc1-like fish transposon)). In words: cell_activity. The settings on record: day 14, CD8+ T cells, n=7.

UniProt P15391, sequence (P15391 20-556 limits assumed): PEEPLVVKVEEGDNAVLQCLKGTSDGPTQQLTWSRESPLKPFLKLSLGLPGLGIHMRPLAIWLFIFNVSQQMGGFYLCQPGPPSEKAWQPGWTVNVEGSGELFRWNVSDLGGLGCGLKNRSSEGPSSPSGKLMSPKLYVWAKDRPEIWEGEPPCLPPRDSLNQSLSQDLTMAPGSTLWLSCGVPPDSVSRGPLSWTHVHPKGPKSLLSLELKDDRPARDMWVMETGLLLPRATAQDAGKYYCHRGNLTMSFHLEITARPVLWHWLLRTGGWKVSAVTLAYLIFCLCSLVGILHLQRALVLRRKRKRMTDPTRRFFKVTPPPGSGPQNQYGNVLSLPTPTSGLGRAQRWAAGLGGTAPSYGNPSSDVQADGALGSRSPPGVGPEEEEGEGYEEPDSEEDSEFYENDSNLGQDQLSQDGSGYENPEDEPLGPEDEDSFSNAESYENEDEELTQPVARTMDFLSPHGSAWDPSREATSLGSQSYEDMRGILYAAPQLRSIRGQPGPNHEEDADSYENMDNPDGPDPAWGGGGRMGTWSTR

Turning to “CD19-CAR (FMC63 targeting domain, IgG4-Fc Hinge spacer, CD3zeta and 4-1BB costimulation) (from UniProt P01861 99-110; Q07011 214-255; P20963 52-163)”, in the data set with CD19, the proliferation by CFSE dilution (cell divisions in 72 hours) is > 3. In data set [1] (SB100X from minicircle), “CD19-CAR_EGFRt transposon in pT2/HB minicircle” came in with an activity (% EGFRt+ cells) of 49.8. Substance “CD19-CAR_EGFRt transposon in pT2/HB plasmid” returned an activity (% EGFRt+ cells) in data set [1] (SB100X from plasmid) of 12.8.
